The values below come from paper PMC10718530.

Test [1] concerns the target MreB from Geobacillus stearothermophilus (MreB^Gs), wild type, 6-histidine-tagged (Geobacillus stearothermophilus ATCC 7953). The test can be described thus: negative-stain electron microscopy; standard conditions (2 mM ATP, 100 mM KCl, MreB 1.34 µM) without lipids, in solution; untreated or glow-discharged grids.
Test [2] has the same target. The test can be described thus: negative-stain electron microscopy; standard conditions with the lipid monolayer but without ATP.
Test [3] shares this target. Briefly: negative-stain electron microscopy; MreB 1.34 µM (0.27-1.34 µM in the concentration series) under a monolayer of E. coli total lipid extract; 20 mM Tris pH 7, 100 mM KCl, 2 mM ATP, 5 mM Mg2+, 1-2 h at 25-37 °C; untreated carbon grids; 12 fields a grid scored for pairs of protofilaments; 2D averaging of 1554 particles.

Consider “MreB from Geobacillus stearothermophilus (MreB^Gs), wild type, 6-histidine-tagged (natural protein)”, for which the results for the percent of EM fields with polymers in test [1], in test [2] and in test [3] were 8 % of fields, 4 % of fields and 100 % of fields, respectively. For the same substance, the critical concentration of polymerization in test [3] worked out at 0.45 µM.
